Experiments:
[1] = test system: PARP; conditions: cited from earlier work
[2] = test system: triple-negative breast cancers (TNBC); conditions: TNBC patients, cited from earlier work
[3] = target: T1, total HER3 (Homo sapiens, UniProt P21860); conditions: 40 mg/kg; cited from earlier work
T1 construct: host or cells: tumour biopsies of patients

[4] = test system: OVCAR5 cell line xenograft; assay: Human OVCAR5 cell line xenograft ovarian cancer mouse model, tumor growth; assay type: in vivo; conditions: 10 mg/kg on day 1
Procedure: (§1) FIG. 17A is a graph showing the effects on tumor growth in a human OVCAR5 cell line xenograft ovarian cancer mouse model for ^225Ac-labeled HER3 antibody, in a single dose of 0.2 μCi or 0.4 μCi, versus standard of care Bevacizumab (10 mg/kg), ^225Ac-labeled non-specific IgG control (0.4 μCi), and naked (cold) HER3 mAb control (10 μg). All agents/controls were dosed on day 1.
as §1, with “17B” for “17A”, “^177Lu-labeled” for “^225Ac-labeled”, “200” for “0.2”, “400” for “0.4”, “(400” for “(0.4”

[5] = target: HER3 (Homo sapiens, UniProt P21860); conditions: cited from earlier work
[6] = test system: HER3-expressing tumors; conditions: 0.1 mg/kg and 0.3 mg/kg; cited from earlier work
[7] = target: T2, surface HER3 (Homo sapiens, UniProt P21860); conditions: across all dose levels tested (100-2000 mg); cited from earlier work
T2 construct: host or cells: tumour biopsies of patients

[8] = target: human recombinant HER3 (human, UniProt P21860 20-643); assay: ELISA, plate coated with human recombinant HER3, serial dilutions 0-100 µg/ml, anti-human IgG F(ab')2-HRP secondary
Procedure: A secondary antibody (Goat Anti-human IgG F (ab′) 20-HRP) was added and incubated for 30 min on ice followed by color development using […] for 10 min.

[9] = test system: 22RV1 human prostate cancer line; assay: Fluorescence flow cytometry cell binding assay, 22RV1
From the text: (§2) FIG. 14 is a graph showing the fluorescence flow cytometry cell binding assay results for naked (unlabeled) and DOTA-conjugated (specifically, p-SCN-Bn-DOTA-conjugated) anti-HER3 antibodies AT02 and AV-203, versus nonstained control, secondary antibody (SA) only control, and non-specific IgG primary antibody control, for three human prostate cancer lines, DU145, 22RV1 and LnCAP.

[10] = test system: LnCAP human prostate cancer line; assay: Fluorescence flow cytometry cell binding assay, LnCAP
From the text: as §2

[11] = test system: DU145 human prostate cancer line; assay: Fluorescence flow cytometry cell binding assay, DU145
From the text: as §2

[12] = test system: ACHN human renal cancer cells xenograft; assay: ACHN human renal cell carcinoma xenograft in Balb/c nude mice, tumor growth; assay type: in vivo, mouse; conditions: 100 μg on day 1, intravenously
Procedure: In more detail, the experiment was performed as follows. Female Balb/c nude mice were subcutaneously injected with 5×10^6 ACHN human renal cancer cells (ATCC; CRL-1611). […] Drug treatments were administered orally for vehicle (PBS) and tivozanib or intravenously for unlabeled/unconjugated HER3 monoclonal antibody (HER3), HER3-ARC (Actinium-225 labeled HER3 antibody) and HER3-ADC (patritumab deruxtecan). Single agents or combinations were dosed as follows: vehicle (daily for 14 days), unlabeled/unconjugated HER3 antibody (100 μg on day 1), HER3-ADC (3 mg/kg on day 1 and 21), HER3-ARC (0.4 μCi on day 1 and 0.2 μCi on day 21), tivozanib (0.3 mg/kg daily for 14 days), tivozanib (0.3 mg/kg daily for 14 days) with HER3-ARC (0.4 μCi on day 16), and HER3-ARC (0.4 μCi on day 1) with tivozanib (0.3 mg/kg starting day 3, daily for 14 days). […] HER3-ARC was always administered in a total protein dose of 50 μg irrespective of the radiation dose. Tumor volumes were measured twice weekly by caliper and body weights were monitored. The mean tumor volume for each group was analyzed and graphed using GraphPad Prism software and statistical analysis is performed with Tukey's multiple comparisons test.

For `CNCc1ccc(-c2[nH]c3cc(F)cc4c3c2CCNC4=O)cc1` [rucaparib], the IC50 values [1] is given as “nanomolar range”.

In the case of `O=C(c1cc(Cc2n[nH]c(=O)c3ccccc23)ccc1F)N1CCN(C(=O)C2CC2)CC1` [olaparib], the disease stabilization rate ([2]; BRCA1/2-mutant vs non-mutant) is listed as “higher disease stabilization rate in BRCA1/2-mutant compared to non-mutant patients” and the sustained responses ([2]; either cohort) is listed as “no sustained responses”.

In the case of `NC(=O)c1cccc2cn(-c3ccc([C@@H]4CCCNC4)cc3)nc12` [niraparib], the IC50 values [1] is listed as “nanomolar range”.

For “LJM716: HER3-targeting antibody from Novartis”, the “decrease in total HER3 levels, paired tumor biopsy samples” value [3] is listed as “three out of five”.

In the case of `C[C@]1(c2nc3c(C(N)=O)cccc3[nH]2)CCCN1` [veliparib], the IC50 values [1] is listed as “nanomolar range”.

In the case of “Bevacizumab: standard of care agent; VEGF inhibitor [reference compound]”, the “antitumor efficacy (tumor growth)” value [4] is reported as “minimal effect”.

In the case of lumretuzumab: HER3 antibody from Roche, the “downregulation of HER3” value ([5]; 1-10 mg/kg) is given as “dose-dependent”, the HER3 target downregulation ([5]; lowest dose 0.3 mg/kg) is given as “did not result in HER3 target downregulation” and the “control of HER3-expressing tumors” value [6] is given as “ineffective”. The “downregulation of surface HER3 in serial tumor biopsies” value [7] was 92 % of patients.

For `Cn1ncnc1[C@H]1c2n[nH]c(=O)c3cc(F)cc(c23)N[C@@H]1c1ccc(F)cc1` [talazoparib], the IC50 values [1] is listed as “picomolar range”.

B1: 225Ac-HER3-ARC (Actinium-225 labeled, p-SCN-Bn-DOTA-conjugated anti-HER3 IgG monoclonal antibody, heavy chain SEQ ID NO:77 and light chain SEQ ID NO:78) (antibody, V domains shown)
VH: QVQLVESGGGLVKPGGSLRLSCAASGFTFSDYAMSWIRQAPGKGLEWVSTISDGGTYTYYPDSVKGRFTISRDNAKNSLYLQMNSLRAEDTAVYYCAREWGDYDGFDYWGQGTLVTVSS
VL: DIQMTQSPSSLSASVGDRVTITCRASQEISGYLSWYQQKPGKAPKRLIYAASTLDSGVPSRFSGSGSGTEFTLTISSLQPEDFATYYCLQYDSYPYTFGQGTKLEIKR
modifications: conjugated to the chelator DOTA using p-SCN-Bn-DOTA and radiolabeled via chelation with Actinium-225; sites of conjugation not stated
notes: Antibody radioconjugate of m1; also called Ac225 labeled DOTA-conjugated anti-HER3 monoclonal antibody
For B1, the EC50 [8] was 1.7 ng/mL.

B2: anti-HER3 IgG monoclonal antibody consisting of heavy chain SEQ ID NO:77 and light chain SEQ ID NO:78 (unmodified) (antibody, V domains shown)
VH: B1 VH
VL: B1 VL
notes: IgG; Detected with an anti-human IgG secondary antibody; also called unmodified anti-HER3 mAb; unmodified anti-HER3 antibody
B2 gave an EC50 [8] of 2.2 ng/mL.

B3: AV-203: anti-HER3 monoclonal antibody from AVEO Oncology; heavy chain variable region SEQ ID NO:21, light chain variable region SEQ ID NO:22 (antibody, V domains shown)
VH: B1 VH
VL: DIQMTQSPSSLSASVGDRVTITCRASQEISGYLSWYQQKPGKAPKRLIYAASTLDSGVPSRFSGSGSGTEFTLTISSLQPEDFATYYCLQYDSYPYTFGQGTKLEIK
With B3 the cell binding [9] was “specifically and comparably bound”, the cell binding [10] was “specifically and comparably bound” and the cell binding [11] was “specifically and comparably bound”. For the same molecule, the “tumor growth (mean tumor volume)” value [12] was “no effect on tumor growth”.

B4: DOTA conjugated AV-203 (conjugate)
VH: B1 VH
VL: B3 VL
With B4 the cell binding [9] was “specifically and comparably bound”, the cell binding [10] was “specifically and comparably bound” and the cell binding [11] was “specifically and comparably bound”.
